Test results as given in patent US6348311B1, “ATM kinase modulation for screening and therapies” (St. Jude Childre's Research Hospital, priority 1999, dated 2002).
Where a SMILES comes first, the peptide text is derived from it. Where no end group is shown, it is not given here. [ ]: non-standard residue; d: D form. Nle = CCCC[C@H](N)C(=O)O

Tests used:
[1] = test system: p95 Ser343 phosphorylation; assay: IR-induced phosphorylation of Myc-p95 on Ser343 in co-transfected 293T cells; assay type: cell-based; details: co-transfected with p95 into 293T cells, 5 Gy IR
Text: FIGS. 4A and 4B. In vivo phosphorylation of p95 on ser343 by ATM upon ionizing irradiation. (A) Phosphorylation of p95 on Ser343 by IR in an ATM-dependent manner in vivo. […] The expression of Flag-ATM in each cell lysates was detected with anti-Flag antibody (top panel). Immunoprecipitated Myc-p95 was blotted with anti-a-p95-phosphoserine 343 antibody (middle panel) or anti-Myc antibody (lower panel). (B) Phosphorylation of endogenous p95 on Ser343 in normal cells, but not AT cells, after IR. Normal (WT, GM0536) or AT (GM1526) lymphoblasts were treated with either 0 (−) or 5 (+) Gy IR. Endogenous p95 was immunoprecipitated and blotted with anti-a-p95-phosphoserine 343 antibody (top panel) or anti-p95 antibody (lower panel).
In vivo phosphorylation of p95. Myc-tagged p95 (3 μg) was transiently co-transfected into 293T cells with wtATM, kdATM, or pCDNA3 (7μg) using calcium phosphate. After 2 days, cells were harvested and Myc-p95 was immunoprecipitated, subjected to SDS-PAGE (7.5%), transferred to nitrocelluose, and immunoblotted with α-cMyc antibody or the α-p95-phosphoserine 343 polyclonal mouse antibody. For metabolic labeling, the cells were washed with phosphate free RPMI plus 10% dialyzed fetal bovine serum and incubated for 30 min before irradiation. […] After electrophoresis in 7.5% SDS-PAGE, radiolabeled p95 and ATM were visualized and quantified on a PhosphorImager.

p53 phosphoserine 15 = assay: p53 Ser15 phosphorylation in lymphoblasts (immunoprecipitation and immunoblot); assay type: cell-based, human; details: ALLN 90 min
Procedure: Posttranslational modification of p53 on Ser^15 in response to ionizing radiation. Monoclonal antibodies against a chemically synthesized p53 phosphoserine-15 peptide (amino acids 9-22) were used to immunoblot synthetic peptides (1×, 50 μg) consisting of the first 24 amino acids of p53 with (1-24^S15-P) or without (1-24) phosphoserine 15. Normal WT (2184) or AT (1526) lymphoblasts were untreated or treated with 5 Gy IR (IR) or 20 mM ALLN for 90 min. p53 was immunoprecipitated, subjected to SDS-PAGE (7.5% gel), transferred to nitrocellulose, and immunoblotted with the monoclonal antibody to phosphoserine 15 p53 (upper panel). Blots were then stripped and immunoblotted with antibodies to p53 (lower panel).
Normal (2184) and AT (1526) EBV immortalized human lymphoblasts were irradiated with a ^137Cs source or treated with 20 mm ALLN (Sigma) for 90 min. Cells were then harvested, lysed, and p53 was immunoprecipitated as described (Siliciano et al., Genes Dev., 11:3471, 1997). Immunoprecipitates were resolved by non-reducing SDS-PAGE, transferred to nitrocellulose and immunoblotted with monoclonal antibody to phosphoserine 15. Blots were stripped and reprobed with p53-specific monoclonal antibodies (Ab-2 and Ab-6).

ATM kinase = molecular target: T1, ATM kinase (Homo sapiens, UniProt Q13315); assay: In vitro kinase assay, ATM with GST-peptide / GST-fusion substrates; assay type: biochemical; details: GST-peptide substrate; relative to the p53ser15 site;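 also: immunoprecipitated ATM incubated with [γ-32P]ATP at 30 °C for 20 min, substrates resolved by SDS-PAGE and radiolabel incorporation quantified by PhosphorImager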
T1 construct: The full-length cDNA encoding NH2-terminal, FLAG-tagged wild-type ATM; made in house; host or cells: 293T cells, transient transfection with pcDNA-FLAG-ATMwt, anti-FLAG M2 immunoprecipitate on beads

ATR = molecular target: T2, ATR (Homo sapiens, UniProt Q13535); assay: In vitro kinase assay, ATR with GST-peptide / GST-fusion substrates; assay type: biochemical; details: GST-peptide substrate; relative to the p53ser15 site
T2 construct: made in house; host or cells: 293T cells, transient transfection with pBJF-FRPwt, anti-FLAG M2 immunoprecipitate
Procedure: (§1) FIGS. 1A, 1B, and 1C. Phosphorylation of GST-p53 mutant peptides (amino acids 9-21) by ATM, ATR, and DNA-PK in vitro. In vitro kinase assays with immunoprecipitated, transfected flag-tagged ATM (A) or ATR (B) or purified DNA-PK (C) were performed with GST-p53 peptides containing the amino acid substitutions indicated. The amount of 32P-labeled GST-peptides was quantitated with a PhosphorImager and was normalized for each of the kinases to the level of phosphorylation of wild-type GST-p53.
(§2) FIGS. 2A, 2B, and 2C. Phosphorylation of candidate targets of by ATM, ATR and DNA-PK in vitro. GST-peptides containing the putative target sequences were used as substrates for the kinase assay.
Transfection and Kinase Activity Assays. 293T cells were transiently transfected with 10 μg of either pcDNA-FLAG-ATMwt, pcDNA-FLAG-ATMkd, pBJF-FRPwt or pBJF-FRPkd (Cliby et al., EMBO J., 17:159, 1998) using calcium phosphate and harvested two days later. Cells were lysed through sonication in TGN buffer [50 mM Tris (pH 7.5), 50 mM glycerophosphate, 150 mM NaCl, 10% glycerol, 1% Tween 20, 1 mM NaF, 1 mM NaVO4, 1 mM PMSF, […] Pepstatin A, 5 μg/ml leupeptin, 10 μg/ml Aprotinin and 1 mM DTT] as described (Brunn et al., Science, 277:99-101,1997). After centrifugation at 13,000 ×g, 2 mg of extract were incubated with mouse IgG and protein A/G sepharose beads (Calbiochem). FLAG-tagged proteins were then immunoprecipitated with anti-FLAG M2 monoclonal antibody (Eastman Kodak Company) and protein A/G sepharose beads. Immunoprecipitates were washed twice with TGN buffer, once with 100 mM Tris (pH 7.5) plus 0.5 M LiCl, and twice with kinase buffer [10 mM Hepes (pH 7.5), 50 mM glycerophosphate, 50 mM NaCl, 10 mM MgCl2, 10 mM MnCl2, 5 μM ATP, and 1 mM DTT]. Kinase reactions were initiated by resuspending washed beads in 30 μl of kinase buffer containing 10 μCi [γ-^32P]ATP and 1 μg GSTp531-101 and incubated for 30 minutes at 30° C. Proteins were electrophoretically separated by SDS-polyacrylamide gel electrophoresis, transferred to nitrocellulose, and analyzed on a PhosphorImager. FLAG-tagged proteins and GSTp531-101 were subjected to immunoblotting with either anti-FLAG M2 antibody or monoclonal antibodies directed towards the NH2-terminus of p53 (Ab-2 and Ab-6, Calbiochem) as described (Siliciano et al., Genes Dev., 11:3471, 1997).
Phosphorylation of Ser^15 of p53 by ATM and ATR/FRP1 in vitro. […] Proteins from each reaction were separated by SDS polyacrylamide gel electrophoresis (7% gel), transferred to nitrocellulose, and analyzed either on a PhosphorImager or by immunoblotting. Amounts of FLAG-tagged ATM or ATR in each kinase reaction were measured by immunoblotting with anti-FLAG M2 (top panel) and amount of [γ^32P]phosphate incorporated into ATM or ATR during the reaction (lower panel). […] An upper immunoreactive band represents phosphorylated GSTp53 fusion protein. The same exposures were used for ATM, ATR/FRP1 and corresponding substrate proteins.
(§3) Plasmids and GST-fusion protein production. For GST fusion peptide expression vectors, complementary oligonucleotides encoding desired peptides (14 amino acids) were cloned into the BamHI/SmaI site of pGEX-2T (Pharmacia). The constructs were confirmed by restriction enzyme digests and DNA sequencing. To construct the larger GST-p95 (327-391) protein fragment, p95 DNA encoding amino acids 327-391 was amplified by PCR with Pfu polymerase using the following primers: 5′ sense,
In vitro kinase assays and immunoprecipitation. […] Cleared supernatants were immunoprecipitated with anti-Flag M2 antibody and protein A/G agarose, the beads were washed with TGN buffer followed by TGN buffer plus 0.5 M LiCl, and two washes with kinase buffer [20 mM HEPES (pH 7.5), 50 mM NaCl, 10 mM MgCl2, 1 mM dithiothreitol (DTT) and 10 mM MnCl2]. […] ATP and […] of GST-fusion substrate (GST-p53:1-101), in varying concentration of Mn^2+. […]

DNA-PK = DNA-PK (Homo sapiens, UniProt P78527); assay: In vitro kinase assay, purified DNA-PK with GST-peptide / GST-fusion substrates; assay type: biochemical; details: GST-peptide substrate; relative to the p53ser15 site
Procedure: as §1, §2, §3
In vitro kinase assays and immunoprecipitation. […] Cleared supernatants were immunoprecipitated with anti-Flag M2 antibody and protein A/G agarose, the beads were washed with TGN buffer followed by TGN buffer plus 0.5 M LiCl, and two washes with kinase buffer [20 mM HEPES (pH 7.5), 50 mM NaCl, 10 mM MgCl2, 1 mM dithiothreitol (DTT) and 10 mM MnCl2]. […] ATP and […] of GST-fusion substrate (GST-p53:1-101), in varying concentration of Mn^2+. The kinase reaction was conducted at 30° C. for 20 min and stopped by the addition of SDS-PAGE loading buffer. Proteins were separated on SDS-polyacrylamide gel electrophoresis (SDS-PAGE) and transferred to nitrocellulose. Radiolabeled proteins were visualized and quantitated on a Phosphorimager (Molecular Dynamics). Use of equivalent amounts of flag-tagged ATM or ATR in the different lanes was confirmed by immunoblotting with anti-flag antibody. In some reactions, either supercoiled DNA (pBluescript II KS, Stratagene) or linearized DNA (pBluescript II KS cut with EcoR1) was added ([…]). For endogenous ATM kinase reactions, endogenous ATM was immunoprecipitated from GM0536 lymphhoblasts with ATM monoclonal antibody (D16.11) in M buffer (PBS, 10% glycerol, 0.2% Tween 20, 0.3% NP-40, 1 mM NaF, 1 mM Na3VO4, 1 mM PMSF, 1x protease inhibitor mixture]. After washing with M buffer and kinase buffer, in vitro kinase reactions were carried out according to procedures described above. The DNA-PK in vitro kinase reaction was performed as previously described (Gottlieb and Jackson, 1993), using 20 ng each of DNA-PKcs or DNA-PK (20 ng DNA-PKcs premixed with 20 ng Ku 70/80).

T2 sequence (Q13535 whole entry, the tested form may be a part): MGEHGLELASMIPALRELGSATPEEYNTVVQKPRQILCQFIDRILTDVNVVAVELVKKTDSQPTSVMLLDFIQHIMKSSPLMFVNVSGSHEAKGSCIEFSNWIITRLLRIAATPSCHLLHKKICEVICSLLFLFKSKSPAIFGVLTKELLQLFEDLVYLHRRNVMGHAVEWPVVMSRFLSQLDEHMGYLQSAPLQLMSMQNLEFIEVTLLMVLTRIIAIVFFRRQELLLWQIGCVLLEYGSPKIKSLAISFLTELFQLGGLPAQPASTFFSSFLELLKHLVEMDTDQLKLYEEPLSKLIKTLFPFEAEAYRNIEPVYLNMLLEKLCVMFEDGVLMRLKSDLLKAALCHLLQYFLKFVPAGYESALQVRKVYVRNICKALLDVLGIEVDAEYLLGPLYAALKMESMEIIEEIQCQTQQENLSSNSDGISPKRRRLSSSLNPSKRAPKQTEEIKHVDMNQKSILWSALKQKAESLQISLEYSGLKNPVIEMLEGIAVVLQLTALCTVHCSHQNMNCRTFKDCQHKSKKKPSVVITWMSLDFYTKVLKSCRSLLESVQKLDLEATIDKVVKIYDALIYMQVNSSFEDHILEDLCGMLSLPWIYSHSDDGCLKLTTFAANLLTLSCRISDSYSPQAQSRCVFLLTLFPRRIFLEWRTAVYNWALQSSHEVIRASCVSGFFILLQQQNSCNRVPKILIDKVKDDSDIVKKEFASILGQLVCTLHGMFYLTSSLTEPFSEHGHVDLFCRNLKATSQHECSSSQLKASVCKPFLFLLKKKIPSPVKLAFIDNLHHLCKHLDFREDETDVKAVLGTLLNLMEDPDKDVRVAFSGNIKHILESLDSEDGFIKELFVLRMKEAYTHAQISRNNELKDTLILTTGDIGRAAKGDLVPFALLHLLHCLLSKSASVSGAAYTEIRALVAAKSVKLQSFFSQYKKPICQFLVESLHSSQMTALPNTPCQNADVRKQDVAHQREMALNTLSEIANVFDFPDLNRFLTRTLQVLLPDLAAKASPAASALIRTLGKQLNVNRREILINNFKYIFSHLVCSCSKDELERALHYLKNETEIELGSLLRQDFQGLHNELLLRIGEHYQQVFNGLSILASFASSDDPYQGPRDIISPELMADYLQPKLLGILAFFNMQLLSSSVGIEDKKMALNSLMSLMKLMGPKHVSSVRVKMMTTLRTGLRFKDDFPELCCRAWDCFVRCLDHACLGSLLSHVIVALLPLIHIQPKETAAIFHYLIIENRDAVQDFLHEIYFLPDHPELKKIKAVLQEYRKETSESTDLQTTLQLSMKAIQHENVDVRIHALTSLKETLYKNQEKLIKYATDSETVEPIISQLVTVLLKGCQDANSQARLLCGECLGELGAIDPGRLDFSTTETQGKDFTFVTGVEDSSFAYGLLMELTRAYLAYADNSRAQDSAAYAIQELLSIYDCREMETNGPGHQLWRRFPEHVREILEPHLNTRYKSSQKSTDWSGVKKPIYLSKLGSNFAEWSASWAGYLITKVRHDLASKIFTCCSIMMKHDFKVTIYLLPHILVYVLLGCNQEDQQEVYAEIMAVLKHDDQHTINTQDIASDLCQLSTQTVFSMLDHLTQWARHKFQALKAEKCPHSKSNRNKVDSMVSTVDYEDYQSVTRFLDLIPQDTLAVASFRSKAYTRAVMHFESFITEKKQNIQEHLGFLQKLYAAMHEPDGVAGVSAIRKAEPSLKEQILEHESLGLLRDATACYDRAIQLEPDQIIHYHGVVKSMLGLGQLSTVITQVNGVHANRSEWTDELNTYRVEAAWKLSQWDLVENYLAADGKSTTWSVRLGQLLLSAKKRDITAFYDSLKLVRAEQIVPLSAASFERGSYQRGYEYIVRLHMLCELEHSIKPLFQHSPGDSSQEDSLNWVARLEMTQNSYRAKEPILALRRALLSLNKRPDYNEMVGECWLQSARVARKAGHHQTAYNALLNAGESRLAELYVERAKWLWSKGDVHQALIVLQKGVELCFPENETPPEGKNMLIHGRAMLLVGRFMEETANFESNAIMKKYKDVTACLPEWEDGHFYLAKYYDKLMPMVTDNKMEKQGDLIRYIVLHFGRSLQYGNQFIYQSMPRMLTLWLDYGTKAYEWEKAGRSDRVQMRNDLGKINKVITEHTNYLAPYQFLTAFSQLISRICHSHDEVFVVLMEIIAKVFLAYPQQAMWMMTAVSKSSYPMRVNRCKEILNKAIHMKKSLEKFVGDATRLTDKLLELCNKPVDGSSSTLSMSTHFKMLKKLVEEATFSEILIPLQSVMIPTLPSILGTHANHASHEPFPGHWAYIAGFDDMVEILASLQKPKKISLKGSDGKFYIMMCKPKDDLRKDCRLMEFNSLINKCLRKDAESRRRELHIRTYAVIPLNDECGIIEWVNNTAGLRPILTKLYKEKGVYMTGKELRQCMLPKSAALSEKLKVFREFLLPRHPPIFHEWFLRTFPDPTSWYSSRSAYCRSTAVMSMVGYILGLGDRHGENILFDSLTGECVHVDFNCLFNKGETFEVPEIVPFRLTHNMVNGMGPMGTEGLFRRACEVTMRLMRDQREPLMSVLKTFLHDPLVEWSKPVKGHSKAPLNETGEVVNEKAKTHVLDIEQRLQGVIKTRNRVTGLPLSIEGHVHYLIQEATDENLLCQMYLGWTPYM

Row | Compound | Relative Phosphorylation (%) ATM (ATM kinase) [%] | Relative Phosphorylation (%) ATR (ATR) [%] | Relative Phosphorylation (%) DNA-PK (DNA-PK) [%] | IR-induced phosphorylation of p95ser343 [1] | effect on p53 protein (p53 phosphoserine 15; lymphoblasts) | Phosphoserine 15 of p53 (p53 phosphoserine 15; normal lymphoblasts)
1 | kinase-inactive form of ATM: FLAG-tagged full-length ATM mutant D2870A and N2875K, kinase-dead, dominant-negative | – | – | – | significantly inhibited | – | –
2 | CCCC[C@@H](C=O)NC(=O)[C@H](CC(C)C)NC(=O)[C@H](CC(C)C)NC(C)=O [ALLN, acetyl-Leu-Leu-norleucinal] (Ac-Leu-Leu-[Nle]-aldehyde) | – | – | – | – | stabilization of p53 protein | undetectable
3 | MRE11 (SQ1): GST-peptide QQLFYISQPGSSVV (SEQ ID NO:11), S264 (also: GST fusion) | 20 | 48 | 10 | – | – | –
4 | BRCA1 (SQ1): GST-peptide SASLFSSQCSELED (SEQ ID NO:32), S1298 (also: GST fusion) | 2 | 38 | 6 | – | – | –

More lines, main results first:

Row | Relative Phosphorylation (%) ATM (ATM kinase) [%] | Relative Phosphorylation (%) ATR (ATR) [%] | Relative Phosphorylation (%) DNA-PK (DNA-PK) [%] | Compound | IR-induced phosphorylation of p95ser343 [1] | effect on p53 protein (p53 phosphoserine 15; lymphoblasts) | Phosphoserine 15 of p53 (p53 phosphoserine 15; normal lymphoblasts)
5 | 5 | 22 | 2 | β-ADAPTIN: GST-peptide CRAPEVSQHVYQAY (SEQ ID NO:28), S935 (not fully specified (N-terminus); also: GST fusion; listed as Homo sapiens) | – | – | –
6 | <1 | 17 | <1 | MRE11 (SQ2): GST-peptide FSVLRFSQKFVDRV (SEQ ID NO:12), S386 (also: GST fusion) | – | – | –
7 | <1 | 5 | <1 | RPA34kD (SQ1): GST-peptide FPAPAPSQAEKKSR (SEQ ID NO:40), S33 (not fully specified (N-terminus); also: GST fusion; listed as Homo sapiens) | – | – | –
8 | <1 | 15 | <1 | p115-RhoGEF: GST-peptide RLRPLLSQLGGNSV (SEQ ID NO:27), S899 (not fully specified (N-terminus); also: GST fusion; listed as Homo sapiens) | – | – | –
9 | 14 | 58 | 2 | CHK1 (SQ1): GST-peptide NVKYSSSQPEPRTG (SEQ ID NO:16), S317 (also: GST fusion) | – | – | –
